Measurements taken from the supplement of paper PMC10567573.
± gives the standard deviation.

Assay: protein stability index of a GFP-peptide fusion (GPS, HEK-293T) (PSI 1-6); higher = more stable
[1] = treatment: DMSO, c terminus: a fixed tail appended
[2] = treatment: MLN4924 1 uM, 8 h, c terminus: a fixed tail appended
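Note: 24-mer peptide tiles fused after GFP, lentivirally expressed, FACS-sorted into six equal bins by GFP/DsRed ratio, decoded by Illumina sequencing, PSI is the read-weighted mean bin number.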

Sequence	protein stability index [1]	protein stability index [2]	protein stability index (treatment: DMSO, c terminus: native)	protein stability index (treatment: MLN4924 1 uM, 8 h, c terminus: native)
VSTKEQILDLLVLEQFLSILPKEL [ZSCAN9]	3.21 ± 0.93	3.02 ± 0.65		
ELIRVEVEILDLNDNSPSFATPER [PCDHGC5]	2.42 ± 0.26	2.43 ± 0.25		
LSEIFPGGIRGRAMALTSSMNWGI [SLC2A12]	1.91 ± 0.4	2.2 ± 0.097		
GIHLALVELLKNLTKYPTDRDSIW [INTS4]	2.77 ± 0.72	2.75 ± 1		
LQTSLENGTRVQEEPELVFTLGDC [FKBP8]	4.34 ± 0.2	4.77 ± 0.25		
PRTNQWSPVVAMTSRRSGVGLAVV [KLHL20]	2.47 ± 0.51	2.47 ± 0.33		
CQEEQLRSHENKLRQLTAELAEHR [PSD2]	4.41 ± 0.25	4.34 ± 0.16		
TIRLNISDVNDNAPRFNQQLYTAY [PCDHGC5]	2.41 ± 0.18	2.37 ± 0.2		
LTEDYFPSVPDNAELVLLTLGQAW [DFFB]	2.34 ± 0.23	2.34 ± 0.22		
EARPIETYQVHDYLRSKLCSLYEN [PPP2R2C]	2.7 ± 0.19	3.02 ± 0.33		
AQRRRMDEISDHAKVLTLSDDLER [EIF5]	4.98 ± 0.26	5.04 ± 0.22		
KKLHEEELRDLQVSVESQQVQQVE [PRPH]	4.13 ± 0.62	4.2 ± 0.13		
SEEEKELYLNLALHLASDFFLKHP [PDS5B]	2.19 ± 0.36	2.18 ± 0.36		
KERQKKDNHNLIERRRRFNINDRI [TFE3]	3.95 ± 0.36	4.08 ± 0.14		
GEEQTQNPYTELLVLKAHHDIVRF [WDR41]	2.51 ± 0.32	2.79 ± 0.3		
MATPDAGLPGAEGVEPAPWAQLEA [FANCE]	4.86 ± 0.32	4.96 ± 0.27		
VTMSSLFKHILRTEGAFGLYRGLA [SLC25A25]	2.5 ± 0.69	2.65 ± 0.51		
ENTLLNSQMVSTDNSLSSQNYISQ [MIA2]	4.05 ± 0.23	4.03 ± 0.17		
RSKIYLRFLDYEMQNSNECKRNFV [NETO1]	2.1 ± 0.2	2.28 ± 0.091		
RGFCAFLGSWLVPFAYLTVLDLSK [POMT2]	3.24 ± 0.7	3.16 ± 0.25		
TGLELIAEESNPPLQDFPNSISSD [MIA2]	5.2 ± 0.097	5.33 ± 0.25		
LVAPVLEPGKQERDVYLPAGKWRS [MYORG]	3.49 ± 0.16	3.75 ± 0.2		
QVKKTTTRWCHIVRDSDSLAESEF [PHTF1]	3.44 ± 0.36	3.67 ± 0.25		

Sequence	protein stability index [1]	protein stability index [2]	protein stability index (treatment: DMSO, c terminus: native)	protein stability index (treatment: MLN4924 1 uM, 8 h, c terminus: native)
TLYRPEEGYCQAQAPIAAVLLMHM [TBC1D10A]	2.52 ± 0.42	2.43 ± 0.45		
NGDDMFVTFAAMQAQQGRSSLVWL [MCOLN1]	3.18 ± 0.54	2.83 ± 0.48		
GRSRLYHDGKNQPGVAYPAFLGPD [SPSB4]	3.84 ± 0.23	3.78 ± 0.19		
GGSSTSERCLLNNSLWKKNKTICK [NLN]	3.44 ± 0.16	3.47 ± 0.33		
YFISTVKRSWTSAQNACSEHGATL [CD69]	2.09 ± 0.49	2.07 ± 0.3		
QTDHIKGIRQITSDDFCTFQMVLE [GFOD1]	2.69 ± 0.28	2.8 ± 0.25		
ISGALLQIKTLLALSCHEQEMVVS [SLC2A12]	2.91 ± 0.5	2.42 ± 0.48		
FARYPNGVVVHYFCSKEVNPADT [VPS39]			2.4 ± 0.22	2.27 ± 0.18
NKKHIHSRSTLECAYRTHLVAGIG [SMG5]	2.37 ± 0.29	2.39 ± 0.19		
YHAVVEPMLWNPSGTPKRYSLELG [C22orf31]	2.77 ± 0.54	2.81 ± 0.17		
DEQAPQRQRLLADLLHNVSQNIAA [DFFB]	3.72 ± 0.16	3.58 ± 0.31		
EEKSVKNTSIRVADFGSATFDHEH [CLK3]	5.1 ± 0.11	5.07 ± 0.21		
VFFLFPHSVLVDDDGIKVVKVTFN [TMEM106C]	2.76 ± 0.45	2.65 ± 0.74		
CLMGLAETPGCATLLPASLFVNSH [DCAF4]	2.35 ± 0.3	2.35 ± 0.34		
VGIYATNSAEACQYVITHAKVNIL [ACSBG2]	2.73 ± 0.69	2.38 ± 0.83		
HKESKMTIFEKENFIGRQWEISDD [CRYBA1]	4.13 ± 0.4	4.07 ± 0.3		
LMGDESACIAYIRITQYLDAGGIP [CAMK2A]	3.21 ± 0.89	2.77 ± 0.68		
RQERVSLYPFQIHSIALSTFASLI [CDS1]	3.04 ± 0.61	2.92 ± 0.49		
LPSRRDVYLSPRDDGYSTKDSYSS [RBMX]	4.11 ± 0.13	3.99 ± 0.42		
DSDFRELHTAREFSEEDEEETTSQ [RTN2]	5.64 ± 0.17	5.5 ± 0.17		
GIPNAIISVEGINHDIRTANDGDY [CPXM2]	4.55 ± 0.2	4.71 ± 0.16		
DPACYEFLWGPRALIETSYVKVLH [MAGEA6]	2.26 ± 0.78	2.21 ± 0.22		
